From patent US20240325562A1 (published 2024)
Substitutions are numbered along the chain they refer to.

B1: SP14P (VHH)
VHH: EVQLVESGGGLVQAGDSLRLSCVVSGLTFSRYGMGWFRQATGKEREFVGGISVGSSGTMYPNSVKGRFTISRDNAKSTVYLQMNSLKPEDTAVYFCAAIDQGSFVQQRDYRYWGQGTQVTVSS
B2: SP31P (VHH)
VHH: EVQLVESGGGLVQAGGSLRLSCAASRGTFGTYIMGWFRQAPGKEREFVAAISWRGANTYYGYSVKGRFTISRDNAKNTMYLQMADLKPEDTADYYCGVHLNGTPYYYASGYRYWGQGTQVTVSS
B3: SP30P (VHH)
VHH: B2 VHH with Y32D
B4: SP20P (VHH)
VHH: EVQLVESGGGLVQAGGSLRLSCVISGRTSPTYPMGWFRQSPGNEREFVASINWSGGWRNYADSVKDRFTISRDDAKNTVYLQMNSLKPEDTAVYYCARGQYSSGTPVYAHEYAYWGQGTQVTVSS
B5: SP36P (VHH)
VHH: EVQLVESGGGLVQAGGSLRLSCTPSITTAGTTIMAWFRQAPGNEREFVAAIWGSKTAYGDSMKGRLTISRDNVRDNGQKTVFLQMNNLQLQDTATYYCAASSGGYVHSSTSYEIWGRGTQVTVSS
B6: SP01P (VHH)
VHH: EVQLVESGGGLAQAGGSLRLSCVASGNIDSANGMAWYRQAPGKQRELVAHITSGTSYYVASVEGRFTISRANAKDTWYLQMNSLKPEDTGVYYCFPIGLSAHWSQGTQVTVSS
B7: SP05P (VHH)
VHH: EVQLVESGGGLVQAGGSLRLSCAASGRTSFSGYAMAWFRQAPGKERDFVASITWSYGYTYYTDSAQGRFTISRDSAKNTVYLEMNSLKPEDTAVYYCAADPKASRFRILREYAYWGQGTQVTVSS
B8: SP02P (VHH)
VHH: EVQLVESGGGLVQAGGSLRLSCAASESISSIEQMGWFRQAPGKQRALVAINTYGGRTVYTNSVEGRFTMSRDSAKNMVYLQMTSLEPEDTAVYYCYAQTTAWRGGVWGQGTQVTVSS
B9: SP28P (VHH)
VHH: EVQLVESGGGLVQAGGSLRLSCAASGSIVSFNGINWYRQAPGKQREWVGGITQGGNTMYADSVRGRFTISRDNTKNTMYLQMNSLKPEDTAVYYCRRPPVASWGQGTQVTVSS
B10: SP27P (VHH)
VHH: EVQLVESGGGLVQIGDSLRLSCAASGGTFNRYGMGWFRQAPGKEREFVAAIRWDGVDTNYADFVKGRFTISRYNAKNTAYLQMNSLKPEDTAVYYCAADRRGLYTKHAHRYDYWGQGTQVTVSS
B11: SP13P (VHH)
VHH: EVQLVESGGGLVQPGGSLRLSCAASESIFSINYMAWYRQAPGKQRELVAFSIDGSSTNYVDSVRGRFTASRDNAENTLYLQMNSLKPEDTAVYYCYAQGNTWAAGVWGQGTQVTVSS
B12: SP26P (VHH)
VHH: EVQLVESGGGLVQAGGSLRLSCAASGRSFSSSVMGWFRQTPGKEREFVAATRWTAASTHYADSVKGRFTISRDHAENAVFLQMNSLKPEDTAVYYCAAGNYLDTAQYRYNYWGQGTQVTVSS
modifications: In the competition assay the reporter copy carried IRDye800 on the C-terminal cysteine, which is not in the letters.

Key:
[1] = target: T1, recombinant hPDGFRB ectodomain (human, UniProt P09619 33-532); experiment: binding to immobilized ectodomain
T1 chain: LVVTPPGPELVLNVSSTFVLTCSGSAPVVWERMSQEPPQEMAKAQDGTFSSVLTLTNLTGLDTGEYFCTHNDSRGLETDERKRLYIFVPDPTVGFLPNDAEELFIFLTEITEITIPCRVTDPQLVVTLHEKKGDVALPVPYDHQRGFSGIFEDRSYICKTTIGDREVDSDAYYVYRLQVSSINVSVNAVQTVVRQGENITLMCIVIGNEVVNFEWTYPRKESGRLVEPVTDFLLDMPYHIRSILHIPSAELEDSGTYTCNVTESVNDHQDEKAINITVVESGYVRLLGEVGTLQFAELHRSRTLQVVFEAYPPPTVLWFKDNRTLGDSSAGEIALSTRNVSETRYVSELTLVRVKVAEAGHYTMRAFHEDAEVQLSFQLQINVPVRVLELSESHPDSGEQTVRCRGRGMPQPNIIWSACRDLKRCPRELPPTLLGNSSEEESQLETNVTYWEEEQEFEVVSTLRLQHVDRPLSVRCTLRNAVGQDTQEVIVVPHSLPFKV

[2] = target: T2, full-length rat PDGFRB on cells (rat, UniProt Q05030 32-1097); experiment: cell binding; SCC-rPDGFRβ cells
T2 chain: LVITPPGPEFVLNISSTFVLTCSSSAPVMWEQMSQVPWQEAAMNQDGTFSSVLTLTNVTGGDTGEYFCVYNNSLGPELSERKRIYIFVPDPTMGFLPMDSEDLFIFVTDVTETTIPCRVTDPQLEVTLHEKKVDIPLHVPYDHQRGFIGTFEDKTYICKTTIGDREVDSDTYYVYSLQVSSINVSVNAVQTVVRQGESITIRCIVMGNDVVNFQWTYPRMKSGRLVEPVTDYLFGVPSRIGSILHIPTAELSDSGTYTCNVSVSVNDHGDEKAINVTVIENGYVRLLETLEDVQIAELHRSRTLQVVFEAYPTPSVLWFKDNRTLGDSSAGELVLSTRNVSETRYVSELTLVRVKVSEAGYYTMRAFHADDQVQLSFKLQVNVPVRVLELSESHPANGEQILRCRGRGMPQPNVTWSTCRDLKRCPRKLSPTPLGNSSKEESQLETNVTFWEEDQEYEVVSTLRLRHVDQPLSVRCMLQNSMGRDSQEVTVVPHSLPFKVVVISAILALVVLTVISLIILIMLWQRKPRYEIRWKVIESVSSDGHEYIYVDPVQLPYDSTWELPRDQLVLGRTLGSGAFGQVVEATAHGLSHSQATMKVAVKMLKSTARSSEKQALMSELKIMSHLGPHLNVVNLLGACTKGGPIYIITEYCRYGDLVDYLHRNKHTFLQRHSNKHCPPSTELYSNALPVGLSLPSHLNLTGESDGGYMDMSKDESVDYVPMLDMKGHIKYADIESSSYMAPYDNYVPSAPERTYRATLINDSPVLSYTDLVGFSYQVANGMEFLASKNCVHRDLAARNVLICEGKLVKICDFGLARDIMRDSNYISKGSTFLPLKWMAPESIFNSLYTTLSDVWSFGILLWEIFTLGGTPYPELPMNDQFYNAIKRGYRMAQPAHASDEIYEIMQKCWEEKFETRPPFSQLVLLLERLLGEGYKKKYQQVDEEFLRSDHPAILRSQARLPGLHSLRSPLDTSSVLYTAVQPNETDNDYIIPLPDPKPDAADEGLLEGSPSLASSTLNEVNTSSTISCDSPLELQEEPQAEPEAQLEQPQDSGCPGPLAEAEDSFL

[3] = target: T3, recombinant rPDGFRB ectodomain (rat, UniProt Q05030 32-531); experiment: binding to immobilized ectodomain
T3 chain: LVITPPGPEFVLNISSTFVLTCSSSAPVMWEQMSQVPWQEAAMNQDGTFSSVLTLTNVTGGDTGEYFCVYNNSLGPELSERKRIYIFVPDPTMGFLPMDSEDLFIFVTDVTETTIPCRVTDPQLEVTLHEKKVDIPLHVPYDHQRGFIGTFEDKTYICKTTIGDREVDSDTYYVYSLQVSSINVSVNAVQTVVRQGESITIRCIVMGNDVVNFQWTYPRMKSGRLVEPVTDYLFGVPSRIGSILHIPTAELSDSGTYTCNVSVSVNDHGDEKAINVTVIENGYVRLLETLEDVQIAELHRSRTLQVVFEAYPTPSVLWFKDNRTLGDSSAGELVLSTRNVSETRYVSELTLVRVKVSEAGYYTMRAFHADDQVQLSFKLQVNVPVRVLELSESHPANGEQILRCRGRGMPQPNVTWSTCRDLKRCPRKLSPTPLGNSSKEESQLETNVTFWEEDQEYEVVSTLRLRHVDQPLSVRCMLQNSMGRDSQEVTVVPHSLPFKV

[4] = target: full-length human PDGFRB on cells (human, UniProt P09619 33-1106); experiment: cell binding; SCC-hPDGFRβ cells

| Binder | Kd [1] | Kd [2] | Kd [3] | Kd [4] |
| --- | --- | --- | --- | --- |
| B1 | 8.6 nM | – | – | – |
| B2 | – | 31.8 nM | 276 nM | – |
| B3 | – | – | 12.2 nM | – |
| B4 | 3.8 nM | – | – | – |
| B5 | – | 76.6 nM | 31 nM | – |
| B6 | 20.4 nM | – | – | 7.8 nM |
| B7 | 9.2 nM | – | – | – |
| B8 | 6.2 nM | – | – | – |
| B9 | – | 0.5 nM | 6 nM | – |
| B10 | – | – | 25.5 nM | – |
| B11 | 9.3 nM | – | – | 10.4 nM |
| B12 | – | 0.3 nM | – | – |
